Series [1] addresses HLp from Leptospira perolatii (Leptospira perolatii). Description: crystal structure; DNA-free HLp, 1.30 Å, molecular replacement; dimer in the asymmetric unit, tetramer by crystallographic symmetry.
Series [2] shares this target. The experiment in a line: crystal structure; HLp-DNA_2: HLp co-crystallized with the 30-bp-GC40 DNA fragment, 1.90 Å; monomer in the asymmetric unit, tetramer by crystallographic symmetry.
Series [3] has the same target. Description: SEC-MALS; HLp incubated with the 30-bp-GC40 DNA fragment at a protein-to-DNA molar ratio of 2:1, 37 °C for 10 min; Superdex 75 Increase 10/300 GL, 25 mM Tris, 50 mM NaCl, 50 mM KCl, pH 7.5. (In general: In gel filtration, larger molecules generally elute earlier.)
Series [4] has the same target. The experiment in a line: crystal structure; HLp-DNA_1: HLp co-crystallized with the 30-bp-GC40 DNA fragment, 2.10 Å; dimer in the asymmetric unit, tetramer by crystallographic symmetry.
The target is the same in series [5]. The experiment in a line: SEC-MALS; HLp alone; Superdex 75 Increase 10/300 GL, 25 mM Tris, 50 mM NaCl, 50 mM KCl, pH 7.5; samples incubated at 37 °C for 10 min; oligomer in solution.
The next series addresses HMfB (Methanothermus fervidus, UniProt P19267 1-69). The experiment in a line: MST; EMSA: 25 mM Tris pH 8.0, 50 mM NaCl, 50 mM KCl, 37 C 10 min; MST: 20 mM Tris pH 8.0, 150 mM NaCl, measured at 25 C (HLp 10 nM DNA, HMfB 20 nM DNA). The conditions noted are these: protein: recombinant; chain copies: 4; label: 5'-Cy5 on strand 1; blunt. On the technique in general: A gel shift assay detects complexes by their altered migration in electrophoresis.

For series [6], the target named is T1, HLp (Leptospira perolatii, UniProt A0A2M9ZN55 1-63).
T1 sequence: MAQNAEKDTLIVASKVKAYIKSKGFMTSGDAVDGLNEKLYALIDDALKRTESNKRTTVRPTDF
Description: MST; 20 mM Tris pH 8.0, 150 mM NaCl; EMSA: 25 mM Tris pH 8.0, 50 mM NaCl, 50 mM KCl, 37 C 10 min; MST: 20 mM Tris pH 8.0, 150 mM NaCl, measured at 25 C (HLp 10 nM DNA, HMfB 20 nM DNA). The conditions noted are these: protein: recombinant; tags: N-terminal His6, cleaved with TEV protease; chain copies: 4; label: 5'-Cy5 on strand 1; blunt.

In series [7] the target is T1, HLp. Description: SEC-MALS; complex 69.2 +/- 5.7 kDa: one tetramer with two duplexes; EMSA: 25 mM Tris pH 8.0, 50 mM NaCl, 50 mM KCl, 37 C 10 min; MST: 20 mM Tris pH 8.0, 150 mM NaCl, measured at 25 C (HLp 10 nM DNA, HMfB 20 nM DNA). The conditions noted are these: protein: recombinant; tags: N-terminal His6, cleaved with TEV protease; chain copies: 4; blunt.

For orientation: stoichiometry N means a count of units in the complex or per binding partner. As a reminder, the Kd is the free concentration of one partner at which half of the binding sites on the other are occupied at equilibrium, for simple one-to-one binding.

HMfB, sequence (P19267 whole entry): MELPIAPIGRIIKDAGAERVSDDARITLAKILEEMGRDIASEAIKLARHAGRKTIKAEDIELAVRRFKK

For “HLp from Leptospira perolatii (natural protein)”, the stoichiometry N in series [1], in series [2], in series [3], in series [4] and in series [5] was 4 each time.

B1: 80-bp DNA [Cy5] (dsDNA)
DNA 1: CCGTACTGTCGTCTGCGGCCTTTGATTATCAATTAAAGCGTTCTACGGCGTTTTTGATCGCTCAACGTGCGGAGCTAGAT
DNA 2: ATCTAGCTCCGCACGTTGAGCGATCAAAAACGCCGTAGAACGCTTTAATTGATAATCAAAGGCCGCAGACGACAGTACGG
As to B1, the Kd with HMfB amounted to 580 ± 130 nM; with HLp [6] it was 3180 ± 1060 nM.

B2: 80-bp-GC40 [Cy5] (dsDNA)
DNA 1: TTTAAAGCCGTTTAAAGCCGTTTAAAGCCGTTTAAAGCCGTTTAAAGCCGTTTAAAGCCGTTTAAAGCCGTTTAAAGCCG
DNA 2: CGGCTTTAAACGGCTTTAAACGGCTTTAAACGGCTTTAAACGGCTTTAAACGGCTTTAAACGGCTTTAAACGGCTTTAAA
Consider B2, for which the Kd was found to be 310 ± 80 nM with HMfB and 1240 ± 140 nM with HLp [6].

B3: 30-bp-GC40 (dsDNA)
DNA 1: TTTAAAGCCGTTTAAAGCCGTTTAAAGCCG
DNA 2: CGGCTTTAAACGGCTTTAAACGGCTTTAAA
B3: in the series with HLp [7], the binding result is “binds”.

For the origin of these results see paper PMC12701072, “DNA Wrapping by a tetrameric bacterial histone”.
